The target in the data set is nucleolin (NCL) (Homo sapiens, UniProt P19338 1-710). Nature of the data set: MST; MST: 300 nM FAM-aptamer, NCL 1.95 nM-4 uM, binding buffer not specified, 25 C, 15 min; AP1-AP6 and Mut folded in 100 mM KCl, 10 mM K3PO4 pH 7.0; AS1411 in 100 mM NaCl, 10 mM Tris-HCl pH 7.0; cell competition at 4 C, 1 h. The following applies: protein: commercial, label: 5'-FAM (amide bond linker).

The Kd is the concentration at which binding is half-saturated. Read a high Kd as lower affinity.

Chain of nucleolin (NCL) (P19338 whole entry): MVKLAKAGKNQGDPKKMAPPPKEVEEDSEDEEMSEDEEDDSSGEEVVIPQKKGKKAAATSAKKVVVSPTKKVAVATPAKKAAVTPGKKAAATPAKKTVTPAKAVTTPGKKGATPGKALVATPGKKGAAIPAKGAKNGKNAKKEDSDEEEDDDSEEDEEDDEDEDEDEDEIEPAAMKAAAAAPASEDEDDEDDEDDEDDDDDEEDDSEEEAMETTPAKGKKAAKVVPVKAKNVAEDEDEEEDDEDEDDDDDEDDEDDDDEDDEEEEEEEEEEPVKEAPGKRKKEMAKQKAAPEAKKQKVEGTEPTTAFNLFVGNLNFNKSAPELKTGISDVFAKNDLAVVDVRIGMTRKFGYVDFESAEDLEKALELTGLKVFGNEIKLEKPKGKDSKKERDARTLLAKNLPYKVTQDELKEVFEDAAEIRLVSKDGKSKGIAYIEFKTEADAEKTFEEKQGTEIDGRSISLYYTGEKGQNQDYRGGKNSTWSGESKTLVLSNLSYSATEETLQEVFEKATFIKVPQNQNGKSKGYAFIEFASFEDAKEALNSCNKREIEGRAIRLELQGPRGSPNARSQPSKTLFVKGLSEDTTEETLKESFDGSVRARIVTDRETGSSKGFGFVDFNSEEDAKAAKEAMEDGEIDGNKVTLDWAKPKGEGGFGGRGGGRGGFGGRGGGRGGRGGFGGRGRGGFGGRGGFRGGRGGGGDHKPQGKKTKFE

B1: AP2-F (structured_RNA)
RNA: GUUAGGGUUUUGGGAUUG
As to B1, the Kd (G4, loop-length variant) is 621 ± 269 nM.

B2: AP1-F (structured_RNA)
RNA: GUUAGGGUUUGGGAUUG
Under “G4”, B2 showed a Kd of 474 ± 47.7 nM.

B3: AP6-F (structured_RNA)
RNA: GUUAGGGUUUAUUAUGGGAUUG
B3: where the note is “G4, loop-length variant”, the Kd came to 507 ± 132 nM.

B4: AP5-F (structured_RNA)
RNA: GUUAGGGUUUAUUUGGGAUUG
In turn, B4 returned a Kd (G4, loop-length variant) of 926 ± 140 nM.

B5: AP4-F (structured_RNA)
RNA: GUUAGGGUUUAUUGGGAUUG
As for B5, for the setting “G4, loop-length variant”, the Kd is 822 ± 290 nM.

B6: AP3-F (structured_RNA)
RNA: GUUAGGGUUUAUGGGAUUG
The molecule B6 had a Kd (G4, loop-length variant) of 499 ± 95.5 nM.

Source of the values: PMC12650828, “Dual-Mode Aptamer AP1-F Achieves Molecular–Morphological Precision in Cancer Diagnostics via Membrane NCL Targeting”.
